Source: the supplement of paper PMC9112550, “Optimization of the antimicrobial peptide Bac7 by deep mutational scanning” (BMC Biology, 2022)

tested on: Escherichia coli TOP10; assay: shrunken log2 fold change of peptide-encoding DNA abundance (4.5 h post-induction vs induction); higher = less antimicrobial activity (less host growth inhibition); details: time post-induction: 4.5 h; library: site-saturation at positions 5, 18, 19, 20
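Also: peptides expressed intracellularly from a pBAD plasmid library in pooled LB shake-flask culture, induced with 0.3% L-arabinose, DNA abundance read by NGS, three biological replicates, DESeq2 with apeglm shrinkage.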

Row | Sequence | shrunken log2 fold change
1 | RRIRNRPPRLPRPRPRPVKNPRP | -0.157
2 | RRIRNRPPRLPRPRPRPVKPPRP | 0.0644
3 | RRIRNRPPRLPRPRPRPVKYPRP | -0.288
4 | RRIRNRPPRLPRPRPRPVLLPRP | -0.0738
5 | RRIRNRPPRLPRPRPRPVLNPRP | -0.261
6 | RRIRNRPPRLPRPRPRPVLYPRP | -0.374
7 | RRIRNRPPRLPRPRPRPVMFPRP | -0.0883
8 | RRIRNRPPRLPRPRPRPVMNPRP | -0.075
9 | RRIRNRPPRLPRPRPRPVPRPRP | 0.0283
10 | RRIRNRPPRLPRPRPRPVPYPRP | 0.0481
11 | RRIRNRPPRLPRPRPRPVQAPRP | -0.00783
12 | RRIRNRPPRLPRPRPRPVQQPRP | 0.171
13 | RRIRNRPPRLPRPRPRPVRAPRP | 0.545
14 | RRIRNRPPRLPRPRPRPVRSPRP | -0.00792
15 | RRIRNRPPRLPRPRPRPVTDPRP | -0.013
16 | RRIRNRPPRLPRPRPRPVTNPRP | 0.0485
17 | RRIRNRPPRLPRPRPRPVTPPRP | 0.0444
18 | RRIRNRPPRLPRPRPRPVVCPRP | -0.06
19 | RRIRNRPPRLPRPRPRPVWEPRP | 0.0809
20 | RRIRNRPPRLPRPRPRPWAPPRP | -0.23
21 | RRIRNRPPRLPRPRPRPWFTPRP | -0.786
22 | RRIRNRPPRLPRPRPRPWGNPRP | 0.00408

Row | Sequence | shrunken log2 fold change
23 | RRIRNRPPRLPRPRPRPWHCPRP | -0.116
24 | RRIRNRPPRLPRPRPRPWHSPRP | -0.496
25 | RRIRNRPPRLPRPRPRPWIIPRP | -0.429
26 | RRIRNRPPRLPRPRPRPWILPRP | -0.146
27 | RRIRNRPPRLPRPRPRPWKGPRP | -0.0198
28 | RRIRNRPPRLPRPRPRPWKLPRP | -0.0134
29 | RRIRNRPPRLPRPRPRPWLAPRP | -0.254
30 | RRIRNRPPRLPRPRPRPWLNPRP | -0.00264
31 | RRIRNRPPRLPRPRPRPWMCPRP | -1.23
32 | RRIRNRPPRLPRPRPRPWMDPRP | -0.165
33 | RRIRNRPPRLPRPRPRPWMPPRP | -0.105
34 | RRIRNRPPRLPRPRPRPWNGPRP | -0.368
35 | RRIRNRPPRLPRPRPRPWPVPRP | -0.153
36 | RRIRNRPPRLPRPRPRPWQCPRP | -0.108
37 | RRIRNRPPRLPRPRPRPWQDPRP | -0.112
38 | RRIRNRPPRLPRPRPRPWTDPRP | 0.0246
39 | RRIRNRPPRLPRPRPRPWTGPRP | -0.0655
40 | RRIRNRPPRLPRPRPRPWTTPRP | -0.0122
41 | RRIRNRPPRLPRPRPRPWVPPRP | -1.03
42 | RRIRNRPPRLPRPRPRPWYCPRP | -0.451
43 | RRIRNRPPRLPRPRPRPWYYPRP | -0.122
44 | RRIRNRPPRLPRPRPRPYAEPRP | -0.525

Row | Sequence | shrunken log2 fold change
45 | RRIRNRPPRLPRPRPRPYDRPRP | -0.12
46 | RRIRNRPPRLPRPRPRPYECPRP | -0.177
47 | RRIRNRPPRLPRPRPRPYEEPRP | -0.277
48 | RRIRNRPPRLPRPRPRPYEKPRP | -0.0332
49 | RRIRNRPPRLPRPRPRPYETPRP | -0.0276
50 | RRIRNRPPRLPRPRPRPYFEPRP | -0.797
51 | RRIRNRPPRLPRPRPRPYGMPRP | -0.331
52 | RRIRNRPPRLPRPRPRPYHHPRP | -0.207
53 | RRIRNRPPRLPRPRPRPYHLPRP | 0.0195
54 | RRIRNRPPRLPRPRPRPYIEPRP | -0.275
55 | RRIRNRPPRLPRPRPRPYIKPRP | -1.03
56 | RRIRNRPPRLPRPRPRPYIRPRP | 0.00719
57 | RRIRNRPPRLPRPRPRPYKHPRP | -0.819
58 | RRIRNRPPRLPRPRPRPYLHPRP | -0.429
59 | RRIRNRPPRLPRPRPRPYLKPRP | -0.151
60 | RRIRNRPPRLPRPRPRPYMGPRP | -1.97
61 | RRIRNRPPRLPRPRPRPYMHPRP | -0.671
62 | RRIRNRPPRLPRPRPRPYMLPRP | -0.14
63 | RRIRNRPPRLPRPRPRPYNEPRP | -0.11
64 | RRIRNRPPRLPRPRPRPYPAPRP | 0.0741
65 | RRIRNRPPRLPRPRPRPYPGPRP | -0.123
66 | RRIRNRPPRLPRPRPRPYPRPRP | 0.0154

Row | Sequence | shrunken log2 fold change
67 | RRIRNRPPRLPRPRPRPYTHPRP | -1.12
68 | RRIRNRPPRLPRPRPRPYVIPRP | -0.177
69 | RRIRNRPPRLPRPRPRPYVLPRP | 0.0201
70 | RRIRNRPPRLPRPRPRPYVWPRP | -0.135
71 | RRIRNRPPRLPRPRPRPYWCPRP | -0.00264
72 | RRIRNRPPRLPRPRPRPYWLPRP | -0.55
73 | RRIRPRPPRLPRPRPRPAAHPRP | 0.0385
74 | RRIRPRPPRLPRPRPRPAAIPRP | 0.0249
75 | RRIRPRPPRLPRPRPRPAAWPRP | 0.377
76 | RRIRPRPPRLPRPRPRPACFPRP | 0.45
77 | RRIRPRPPRLPRPRPRPACTPRP | 0.163
78 | RRIRPRPPRLPRPRPRPADKPRP | 0.0949
79 | RRIRPRPPRLPRPRPRPAETPRP | -0.0458
80 | RRIRPRPPRLPRPRPRPAFRPRP | 0.211
81 | RRIRPRPPRLPRPRPRPAGQPRP | -0.0709
82 | RRIRPRPPRLPRPRPRPAHHPRP | 0.207
83 | RRIRPRPPRLPRPRPRPAHNPRP | -0.114
84 | RRIRPRPPRLPRPRPRPAHWPRP | 0.484
85 | RRIRPRPPRLPRPRPRPAHYPRP | 0.02
86 | RRIRPRPPRLPRPRPRPAILPRP | -0.339
87 | RRIRPRPPRLPRPRPRPAKRPRP | 0.035
88 | RRIRPRPPRLPRPRPRPALDPRP | 0.628

Row | Sequence | shrunken log2 fold change
89 | RRIRPRPPRLPRPRPRPALIPRP | -0.0205
90 | RRIRPRPPRLPRPRPRPAMGPRP | 0.332
91 | RRIRPRPPRLPRPRPRPANAPRP | 0.0662
92 | RRIRPRPPRLPRPRPRPANLPRP | -0.12
93 | RRIRPRPPRLPRPRPRPAPYPRP | -0.0601
94 | RRIRPRPPRLPRPRPRPAQCPRP | 0.148
95 | RRIRPRPPRLPRPRPRPAQSPRP | 0.448
96 | RRIRPRPPRLPRPRPRPARMPRP | 0.487
97 | RRIRPRPPRLPRPRPRPATEPRP | 0.0977
98 | RRIRPRPPRLPRPRPRPATMPRP | 0.0647
99 | RRIRPRPPRLPRPRPRPATWPRP | 0.253
100 | RRIRPRPPRLPRPRPRPAYIPRP | -0.518
101 | RRIRPRPPRLPRPRPRPCAAPRP | 0.888
102 | RRIRPRPPRLPRPRPRPCACPRP | -0.129
103 | RRIRPRPPRLPRPRPRPCATPRP | 0.132
104 | RRIRPRPPRLPRPRPRPCAWPRP | 0.0868
105 | RRIRPRPPRLPRPRPRPCDPPRP | -0.575
106 | RRIRPRPPRLPRPRPRPCETPRP | 0.0508
107 | RRIRPRPPRLPRPRPRPCFGPRP | 1.01
108 | RRIRPRPPRLPRPRPRPCFSPRP | -0.304
109 | RRIRPRPPRLPRPRPRPCFYPRP | -0.242
